Measurements published in patent publication US20240317851A1 (LANOVA MEDICINES, published 2024).
Numbering of substitutions follows the chain as printed. Where two headings read alike, the source gives them in different places. One block for each molecule: values may come before it.

Columns and labels:
[1] = target: T1, human Claudin 3 (human, UniProt O15551 1-220); test: flow cytometry, CHOK1/H_CLDN3 cells, Ab titrated from 100 nM
T1 construct: whole, on cells; also called CLDN3
T1 sequence (looked up): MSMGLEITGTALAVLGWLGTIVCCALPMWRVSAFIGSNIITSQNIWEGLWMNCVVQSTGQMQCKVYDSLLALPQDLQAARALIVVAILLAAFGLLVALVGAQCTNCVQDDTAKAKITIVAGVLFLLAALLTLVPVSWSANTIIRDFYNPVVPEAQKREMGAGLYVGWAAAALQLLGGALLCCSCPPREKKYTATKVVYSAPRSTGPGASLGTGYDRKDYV
Description: (§1) In this example, cell-based binding of hu Abs on human CLDN3 expressing cells were assessed using flow cytometry.
(§2) Briefly, the CHOK1/H_CLDN3 cells were incubated with hu-Abs (from 100 nM, 6 folds dilution, 8 points). After incubation at 4° C. for 60 minutes. Cells were pelleted and washed twice with 2% FBS/PBS buffer, and stained with fluorescent conjugated secondary antibody at 4° C. for 30 minutes. After that the cells were washed twice and resuspended in 80 μL of 2% FBS/PBS buffer. Fluorescent signal of binding was detected using Agilent. The EC50 was calculated using the GraphPad software.

[2] = target: T2, human Claudin 9 (human, UniProt O95484 1-217); test: flow cytometry, HEK293/H_CLDN9 cells, Ab titrated from 100 nM
T2 construct: whole, on cells; also called CLDN9; CLND9
T2 sequence (looked up): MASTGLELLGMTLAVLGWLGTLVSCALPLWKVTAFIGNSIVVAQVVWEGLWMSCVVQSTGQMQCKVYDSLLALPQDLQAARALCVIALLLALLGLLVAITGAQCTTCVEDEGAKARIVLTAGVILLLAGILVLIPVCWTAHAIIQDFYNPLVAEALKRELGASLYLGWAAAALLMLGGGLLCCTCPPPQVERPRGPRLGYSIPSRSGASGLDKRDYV

[3] = target: T3, human Claudin 6 (human, UniProt P56747 1-220); test: flow cytometry, OVCAR3 cells (endogenous CLDN6), Ab titrated from 100 nM
T3 sequence (looked up): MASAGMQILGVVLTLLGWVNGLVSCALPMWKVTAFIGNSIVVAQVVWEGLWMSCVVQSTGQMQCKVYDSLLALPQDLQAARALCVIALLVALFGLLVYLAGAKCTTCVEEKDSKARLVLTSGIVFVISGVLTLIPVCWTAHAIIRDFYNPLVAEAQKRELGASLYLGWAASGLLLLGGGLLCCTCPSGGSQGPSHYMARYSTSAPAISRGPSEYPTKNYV
Description: In this example, FACS binding of chimeric Abs to Ovcar3 and Ov90 cells with claudin 6 endogenous expression were assessed using flow cytometry.
as §2, with “Claudin 6 endogenous expression cell line” for “Briefly, the CHOK1/H_CLDN3 cells”, “chimeric Abs” for “hu-Abs”, “6-fold” for “6 folds”, “points) for 60 minutes” for “points). After incubation”, “C.” for “C. for 60 minutes.”

[4] = target: T3, human Claudin 6; test: cell-based or functional assay
[5] = target: T1, human Claudin 3; test: flow cytometry, CHOK1/CLDN3 cells
Description: In this example, cell based binding of chimeric antibody 97-C10E1-2 toward human CLDN3 overexpression cell line were assessed using flow cytometry.
as §2, with “Briefly,” for “Briefly, the CHOK1/H_CLDN3”, “chimeric antibody” for “hu-Abs”, “Software.” for “software.”

[6] = target: T3, human Claudin 6; test: cell-based or functional assay; remark: listed apart in the source
[7] = target: T3, human Claudin 6; test: flow cytometry, HEK293/H_CLDN6 cells, Ab titrated from 100 nM
Description: (§3) In this example, cell based binding of chimeric Abs on human CLDN6 & CLND9 over-expressing cell line were assessed using flow cytometry.
as §2, with “the” for “the CHOK1/H_CLDN3”, “chimeric Abs” for “hu-Abs”, “6-fold” for “6 folds”, “points) for 60 minutes” for “points). After incubation”, “C.” for “C. for 60 minutes.”, “software (LaJolla, CA).” for “software.”

[8] = target: T3, human Claudin 6; test: as above; remark: listed apart in the source
Description: In this example, cell-based binding of humanized antibodies (hu Abs) on human CLDN6 expressing cells were assessed using flow cytometry.
as §2, with “HEK293/H_CLDN6” for “CHOK1/H_CLDN3”

[9] = target: T1, human Claudin 3; test: flow cytometry, CHOK1/H_CLDN3 cells
Description: as §1, §2

[10] = target: T3, human Claudin 6; test: cell-based or functional assay; remark: listed apart in the source
[11] = target: T3, human Claudin 6; test: cell-based or functional assay; remark: listed apart in the source
[12] = target: T3, human Claudin 6; test: cell-based or functional assay; remark: listed apart in the source
[13] = target: T2, human Claudin 9; test: flow cytometry, HEK293/H_CLDN9 cells, Ab titrated from 100 nM; remark: listed apart in the source
Description: as §3
as §2, with “the” for “the CHOK1/H_CLDN3”, “chimeric Abs” for “hu-Abs”, “6-fold” for “6 folds”, “points) for 60 minutes” for “points). After incubation”, “C.” for “C. for 60 minutes.”, “software (LaJolla, CA).” for “software.”

Top MFI [1]: 128
Top MFI [2]: 140
Top MFI [3]: 126
Top MFI ([3]; record 2): 101
Molecule: hIgG1 Isotype (antibody)

Top MFI [8]: 185000
Top MFI [1]: 263
Top MFI [2]: 9160
B2: 97-C10E1-2-P1.z4 (antibody, V domains shown)
VH: QVQLVQSGAEVKKPGASVKVSCKASGYAFTGYTMNWVRQAPGQGLEWIGLSNPYNAGTIYNQKFKGRVTMTVDKSTSTVYMELSSLRSEDTAVYYCARNYYYGSSYAYYYAMDYWGQGTTVTVSS
VL: DAQMTQSPSSLSASVGDRVTITCRSSTGAVTTSNYANWVQQKPGKAFKGLIGGTNNRAPGVPARFSGSLSGTDAALTISSLQPEDFATYFCALWYSNHWVFGGGTKVEIK
binding result [9]: no binding (tested: 100 nM (highest concentration tested))

Top MFI [8]: 181000
Top MFI [1]: 249
Top MFI [2]: 1660
B5: 97-C10E1-2-P1.z7 (antibody, V domains shown)
VH: B2 VH with V5Q, G44N, M70L, S84L
VL: EAVVTQSPATLSVSPGERATLSCRSSTGAVTTSNYANWVQEKPGQAFRGLIGGTNNRAPGIPARFSGSLSGDEATLTISSLQSEDFAVYFCALWYSNHWVFGGGTKVEIK
binding result [9]: no binding (tested: 100 nM (highest concentration tested))

The next lines start with the molecule.

B1: 97-C10E1-2 (antibody, V domains shown)
VH: EVQLQQSGPELVKPGASMKISCKASGYAFTGYTMNWVKQSHGKNLEWIGLSNPYNGGTIYNQKFKGKATLTVDKSSSTAYMELLSLTSEDSAVYYCARNYYYGSSYAYYYAMDYWGQGTSVTVSS
VL: QAVVTQESALTTSPGETVTLTCRSSTGAVTTSNYANWVQEKPDHLFTGLIGGTNNRAPGVPARFSGSLIGDKAALTITGAQTEDEAIYFCALWYSNHWVFGGGTKLTVL
notes: Tested as chimeric antibody; also called chimeric antibody 97-C10E1-2
Inhibition Rate (%) (HEK293/H_CLDN6) [4]: 83.4%
binding result [5]: no binding (tested: 100 nM (highest concentration tested))
internalization Top RLU (HEK293/H_CLDN6) [6]: 829000 RLU
Top MFI [3]: 2590
Top MFI [7]: 321000

B3: z5-Eribulin (antibody, V domains shown)
VH: B2 VH
VL: B2 VL with A2I, Q3V, M4V, A13T, Q41E, T72D, L81A
modifications: eribulin conjugated to the antibody; residues and drug load not stated
cytotoxicity IC50 (nM), OV90 cells, 5 days [10]: 4.66 nM
cytotoxicity IC50 (nM), OVCAR3 cells, 5 days [10]: 0.11 nM
cytotoxicity IC50 (nM), PA-1 cells, 5 days [10]: 0.46 nM
cytotoxicity IC50 (nM), CLDN6 High Exp HEK293 cells, 5 days [11]: 0.1 nM

B4: z5-MMAE (antibody, V domains shown)
VH: B2 VH
VL: B2 VL with A2I, Q3V, M4V, A13T, Q41E, T72D, L81A
modifications: MMAE conjugated to the antibody; residues and drug load not stated
cytotoxicity IC50 (nM), OV90 cells, 5 days [10]: 0.76 nM
cytotoxicity IC50 (nM), OVCAR3 cells, 5 days [10]: 0.13 nM
cytotoxicity IC50 (nM), PA-1 cells, 5 days [10]: 0.11 nM
cytotoxicity IC50 (nM), CLDN6 High Exp HEK293 cells, 5 days [11]: 0.1 nM
Min cell viability, OV90 (CLDN6 low) [12]: 8%
Min cell viability, OVCAR-3 (CLDN6 mid) [12]: 3.71%
Min cell viability, PA-1 (CLDN6 high) [12]: 4.88%

B6: 67-C12E11 (antibody, V domains shown)
VH: EVQLQQSGPELVKPGASVKISCKTSGYTFTEYTMHWVKQSHGKSLEWIGGINPNNGGTSYNQKFKGKATLTVDKSSSTAYMELRSLTSEDSAVYYCARGMVVAFYFDSWGQGTTLTVSS
VL: DIQMTQSPASQSASLGESVTITCLASQTIGSWLAWYQQKPGKSPQLLIYAATSLADGVPSRFSGSGSGTKFSFKISSLQAEDFVSYYCQQLYSTPYTFGGGTKLEIK
notes: Tested as chimeric antibody
Inhibition Rate (%) (HEK293/H_CLDN6) [4]: 83.9%
internalization Top RLU (HEK293/H_CLDN6) [6]: 446000 RLU
Top MFI [13]: 28800
Top MFI [3]: 165
Top MFI [7]: 161000

B7: 83-F6A6 (antibody, V domains shown)
VH: QVQLQQSAPELARPGASVRMSCKASGYTFTTYTMHWVKQRPGQGLEWIGFIIPSSGYTEYNQNLKDKTTLTADKASSTAYMQLTSLTSEDSAVYYCARQFSLITTGFGYALDYWGQGTSVTVSS
VL: DIVMTQSRKFMSTSVGDRVSITCKASQDVSTAVAWYQQKPGQSPKLLLYWASTRHTGVPDRFTGSGSGTDYTLTISSVQAEDLALYYCQQHYSTPLTFGAGTKLELK
notes: Tested as chimeric antibody
Inhibition Rate (%) (HEK293/H_CLDN6) [4]: 78.6%
internalization Top RLU (HEK293/H_CLDN6) [6]: 710000 RLU
Top MFI [13]: 23500
Top MFI [3]: 227
Top MFI [7]: 258000
